# Source: patent US6335019B1, “Methods for treating sensitivity to protein allergen using peptides which include a T cell epitope recognized by a T cell receptor specific for the protein allergen” (Immulogic Pharmaceutical Corp., priority 1989, dated 2002)
# Columns and labels:
# [1] = system: rabbit antisera directed against an Amb a II sequence (amino acid 326-338; RAE 50. K); test: Western blot of recombinant proteins with monospecific anti-peptide antisera against RAE 50. K; format: binding; conditions: Western blots, data not shown
# Source text: Proteins or peptides encoded by the cDNA of the present invention can be used, for example, as “purified” allergens. Such purified allergens are useful in the standardization of allergen extracts which are key reagents for the diagnosis and treatment of ragweed allergy. Furthermore, by using peptides based on the sequences listed in FIGS. 2 through 16, anti-peptide antisera or monoclonal antibodies can be made using standard methods. Such reagents can be specifically directed against individual isoforms of Amb a I or Amb a II (i.e., directed against divergent regions/epitopes of the molecule) or can be specific for all forms Amb a I or Amb a II (i.e, directed against common sequences/epitopes). These sera or monoclonal antibodies, directed against Amb a I or Amb a II, can be used to standardize allergen extracts. One such monospecific anti-peptide antisera has already been successfully produced.
# [2] = system: human IgE (ragweed allergic patient sera); test: SDS-PAGE Western blot (and ELISA) of ragweed allergic patient IgE binding to pollen, affinity purified and recombinant Amb a I / Amb a II; parameters: key to IgE binding, summarized Western blot data: −: no signal over background; +−: barely discernable over background; +: clearly positive; ++: strongly positive; +++: highly positive
# Protocol: As represented in FIG. 1A, a selected monoclonal antibody (designated 4B5/B7) which recognizes an Amb a I preparation unsubjected to denaturing conditions was used to affinity purify from pollen extract a single protein, which is referred to as affinity purified Amb a I. This was carried out, using known techniques, by producing the desired monoclonal antibody, isolating it in large quantities from ascites and immobilizing it on Sepharose (Pharmacia). Aqueous pollen extract was passed over the monoclonal antibody-containing column and a protein species was eluted.
# (§1) Furthermore, full-length and truncated cDNAs encoding several members of the Amb a I multigene family, as well as Amb a II, were cloned in-frame into the expression vector pTrc99 (Amann et al. Gene, 69:301-315, (1988)) and transformed into the JM109 host. Expression of recombinant Amb a I and Amb a II protein was induced by 1 mM isopropyl-β-D-thiogalactopyranoside, cells were harvested, lysozyme treated, sonicated and insoluble inclusion bodies recovered by a low speed centrifugation. Recombinant Amb a I and Amb a II protein present in the recovered pellet was solubilized in buffer containing 8M urea, 50 mM Tris HC1 pH8.0, 50 mM NaCl, 1 mM EDTA, 1 mM dithiothreitol, 1 mM phenylmethylsulfonyl fluoride. After solubilization, the crude urea lysate was dialyzed at 4° C. against PBS. […] This antigenic cross-reactivity is consistent with the observed sequence homology of the cDNAs (see FIG. 16).
# Comparison of human IgE binding to recombinant Amb a I and Amb a II proteins with anti-peptide and monoclonal anti-Amb a I antibodies have provided data consistent with the conclusion that the N-terminal portion (historically referred to as the β-region) of Amb a IA includes the major IgE eptiope(s).
# Affinity purified Amb a I was electrophoresed, Western transferred (Towbin et al., Proc. Natl. Acad. Sci. USA, 76:4350 (1979)) and probed with a variety of antibodies, including IgE from an allergic patient (FIG. 17). In pollen extract Amb a I is not only present as an intact 38-KD species, but also characterized by its component 26KD alpha chains and 12-KD beta chains which are formed by enzymatic cleavage. The intact 38-KD species and the alpha chain are clearly detected using rabbit anti-Amb a I, polyclonal affinity purified anti-RAE 16 and monoclonal anti-Amb a I JBIE3-4 (FIG. 17); RAE 16 peptide has the sequence RTDKDLLENGAIC derived from amino-acids […] of Amb a IB, FIG. 16). Affinity purified Amb a I (partial sequence presented in Table 1) as well as chromatographically purified Amb a II (partial sequence presented in Table 2) are bound on Western blots by these antibodies as well as by patient IgE (FIG. 17). The goat anti-Amb a I polyclonal antibody also binds multiple Amb a I and Amb a II species on a two dimensional Western blot of pollen extract (FIG. 18). The Western blot was performed as outlined below. […]
# [3] = system: goat anti-Amb a I antibody; test: Western blot of E. coli-expressed recombinant Amb a I / Amb a II with goat anti-Amb a I antibody (FIG. 19); format: binding
# Protocol: as §1
# Isoelectric focusing was done on a Hoeffer gel apparatus with 15 μg of crude soluble pollen protein. The gel consisted of 7.5% acrylamide with 3.5% Pharmalytes pH 4.5-5.3 (Pharmacia) and 3.5% Ampholines pH 3.5-10 (LKB), run at 13W for 3.5 hours until a constant voltage was reached. The gel section was placed on a slab of 10% acrylamide SDS-PAGE and electrophoresed for 3.5 hours at 40 mA according to the protocol cited. The proteins were transferred overnight in phosphate buffer to 0.1 micron nitrocellulose (Schleicher and Schuell) at 0.2A. The blot was rinsed in blot solution (25 mM Tris-CHl pH 7.5, 0.171 M NaCl, 0.05% Tween-20; Sigma). The first antibody incubation was overnight at room temperature with a […] of goat anti-Amb a I IgC (obtained from Dr. David Marsh) in blot solution. The excess first antibody was removed with three 15 minute rinses with blot solution. The second antibody was a 1:2,500 dilution of biotinylated swine anti-goat IgG (Boehringer-Manneheim) in blot solution for two hours. The blot was then rinsed with blot solution three times for 15 minutes and incubated for 1 hr in blot solution with 2 μCi I^125 streptavidin (Amersham). The blots were rinsed with blot solution until the waste wash was down to background. The blot was then exposed to film at —80° C. overnight. In the case of one-dimensional SDS-PAGE Western blots (FIGS. 17, 19 and 20) the isoelectric focusing step was omitted. When human sera was used to probe the Western blots (FIGS. 17 and 20), 10% human plasma in 1% milk in blot solution was incubated overnight with the blot prior to using as second antibody biotinylated goat anti-human IgE.
# [4] = system: rabbit anti-Amb a I polyclonal antibody; test: Western blot with rabbit anti-Amb a I polyclonal antibody (FIG. 17); format: binding
# Source text: As is also represented in FIG. 1A, rabbit polyclonal antibodies were produced using the King Antigen E preparation. […] These antibodies were also shown, using a similar technique, to bind to the affinity purified Amb a I described previously (FIG. 17).
# It is clear from the antibody reactivity that the 4B5/B7 affinity purified Amb a I has a recognition pattern similar to that of the Amb a I of pollen and skin test reagent with both rabbit polyclonal anti-Amb a I and JB1E3-4 anti-Amb a I monoclonal antibody (FIG. 17).
# Affinity purified Amb a I was electrophoresed, Western transferred (Towbin et al., Proc. Natl. Acad. Sci. USA, 76:4350 (1979)) and probed with a variety of antibodies, including IgE from an allergic patient (FIG. 17). In pollen extract Amb a I is not only present as an intact 38-KD species, but also characterized by its component 26KD alpha chains and 12-KD beta chains which are formed by enzymatic cleavage. The intact 38-KD species and the alpha chain are clearly detected using rabbit anti-Amb a I, polyclonal affinity purified anti-RAE 16 and monoclonal anti-Amb a I JBIE3-4 (FIG. 17); RAE 16 peptide has the sequence RTDKDLLENGAIC derived from amino-acids 343-353 of Amb a IB, FIG. 16). […]
Molecule,Binding by rabbit anti-RAE 50. K antisera (in words) [1],"IgE binding, summarized Western blot data ([2]; patient 151)","IgE binding, summarized Western blot data ([2]; patient 222)","IgE binding, summarized Western blot data ([2]; patient 291)","IgE binding, summarized Western blot data ([2]; patient 295)","IgE binding, summarized Western blot data ([2]; patient 296)",Binding by goat anti-Amb a I antibody (in words) [3],"Human IgE binding (in words) ([2]; Western blot (FIG. 17) and/or ELISA, ragweed allergic patient IgE)",Binding by rabbit anti-Amb a I polyclonal antibodies (in words) [4]
Amb a II: E. coli expressed recombinant Amb a II (Antigen K) (protein) LYFTLALVTLVQAGRLGEEVDILPSPNDTRRSLQGCEAHNIIDKCWRCKPDWAENRQALGDCAQGFGKATHGGKWGDIYMVTSDQDDDVVNPKEGTLRFGATQDRPLWIIFQRDMIIYLQQEMVVTSDTTIDGRGAKVELVYGGITLMNVKNVIIHNIDIHDVRVLPGGRIKSNGGPAIPRHQSDGDAIHVTGSSDIWIDHCTLSKSFDGLVDVNWGSTGVTISNCKFTHHEKAVLLGASDTHFQDLKMHVTLAYNIFTNTVHERMPRCRFGFFQIVNNFYDRWDKYAIGGSSNPTILSQGNKFVAPDFIYKKNVCLRTGAQEPEWMTWNWRTQNDVLENGAIFVASGSDPVLTAEQNAGMMQAEPGDMVPQLTMNAGVLTCSPGAPC,binds specifically,+,+,+−,−,−,binds specifically,,
chromatographically purified Amb a II: chromatographically purified Amb a II (Antigen K) from ragweed pollen (protein) GEEVDILPSPNDTRRSLQGCEAHNIIDKCWRCKPDWAENRQALGNCAQGFGKATHGGKWGDIYMVTSDQDDDVVNPKEGTLRFGATQDRPLWIIFQRDMIIYLQQEMVVTSDKTIDGRGAKVELVYGGITLMNVKNVIIHNIDIHDVRVLPGGRIKSNGGPAIPRHQSDGDAIHVTGSSDIWIDHCTLSKSFDGLVDVNWGSTGVTISNCKFTHHEKAVLLGASDTHFQDLKMHVTLAYNIFTNTVHERMPRCRFGFFQIVNNFYDRWDKYAIGGSSNPTILSQGNKFVAPDFIYKKNVCLRTGAQEPEWMTWNWRTQNDVLENGAIFVASGSDPVLTAEQNAGMMQAEPGDMVPQLTMNAGVLTCSPGAPC,,,,,,,,bound,cross-reactive B-cell epitopes
